Drawing on article PMC3406077 (2012), this text covers response for three variants.

The labels stand for the following.
B1: wild-type full-length (C24-P237) pallilysin [Treponema pallidum subsp. pallidum (Nichols strain)] / plasminogen-depleted human fibrinogen [human] (parent complex)
chain 1: CFQHGHVPPRRIPPHDTFGALPTAALPSNARDTAAHPSDTADNTSGSSTTTDPRSHGNAPPAPVGGAAQTHTQPPVQTAMRIALWNRATHGEQGALQHLLAGLWIQTEISPNSGDIHPLLFFDREHAEITFSRASVQEIFLVDSAHTHRKTVSFLTRNTAISSIRRRLEVTFESHEVIHVRAVEDVARLKIGSTSMWDGQYTRYHAGPASAPSP
chain 2: ADSGEGDFLAEGGGVRGPRVVERHQSACKDSDWPFCSDEDWNYKCPSGCRMKGLIDEVNQDFTNRINKLKNSLFEYQKNNKDSHSLTTNIMEILRGDFSSANNRDNTYNRVSEDLRSRIEVLKRKVIEKVQHIQLLQKNVRAQLVDMKRLEVDIDIKIRSCRGSCSRALAREVDLKDYEDQQKQLEQVIAKDLLPSRDRQHLPLIKMKPVPDLVPGNFKSQLQKVPPEWKALTDMPQMRMELERPGGNEITRGGSTSYGTGSETESPRNPSSAGSWNSGSSGPGSTGNRNPGSSGTGGTATWKPGSSGPGSTGSWNSGSSGTGSTGNQNPGSPRPGSTGTWNPGSSERGSAGHWTSESSVSGSTGQWHSESGSFRPDSPGSGNARPNNPDWGTFEEVSGNVSPGTRREYHTEKLVTSKGDKELRTGKEKVTSGSTTTTRRSCSKTVTKTVIGPDGHKEVTKEVVTSEDGSDCPEAMDLGTLSGIGTLDGFRHRHPDEAAFFDTASTGKTFPGFFSPMLGEFVSETESRGSESGIFTNTKESSSHHPGIAEFPSRGKSSSYSKQFTSSTSYNRGDSTFESKSYKMADEAGSEADHEGTHSTKRGHAKSRPVRGIHTSPLGKPSLSP
chain 3: QGVNDNEEGFFSARGHRPLDKKREEAPSLRPAPPPISGGGYRARPAKAAATQKKVERKAPDAGGCLHADPDLGVLCPTGCQLQEALLQQERPIRNSVDELNNNVEAVSQTSSSSFQYMYLLKDLWQKRQKQVKDNENVVNEYSSELEKHQLYIDETVNSNIPTNLRVLRSILENLRSKIQKLESDVSAQMEYCRTPCTVSCNIPVVSGKECEEIIRKGGETSEMYLIQPDSSVKPYRVYCDMNTENGGWTVIQNRQDGSVDFGRKWDPYKQGFGNVATNTDGKNYCGLPGEYWLGNDKISQLTRMGPTELLIEMEDWKGDKVKAHYGGFTVQNEANKYQISVNKYRGTAGNALMDGASQLMGENRTMTIHNGMFFSTYDRDNDGWLTSDPRKQCSKEDGGGWWYNRCHAANPNGRYYWGGQYTWDMAKHGTDDGVVWMNWKGSWYSMRKMSMKIRPFFPQQ
chain 4: YVATRDNCCILDERFGSYCPTTCGIADFLSTYQTKVDKDLQSLEDILHQVENKTSEVKQLIKAIQLTYNPDESSKPNMIDAATLKSRKMLEEIMKYEASILTHDSSIRYLQEIYNSNNQKIVNLKEKVAQLEAQCQEPCKDTVQIHDITGKDCQDIANKGAKQSGLYFIKPLKANQQFLVYCEIDGSGNGWTVFQKRLDGSVDFKKNWIQYKEGFGHLSPTGTTEFWLGNEKIHLISTQSAIPYALRVELEDWNGRTSTADYAMFKVGPEADKYRLTYAYFAGGDAGDAFDGFDFGDDPSDKFFTSHNGMQFSTWDNDNDKFEGNCAEQDGSGWWMNKCHAGHLNGVYYQGGTYSKASTPNGYDNGIIWATWKTRWYSMKKTTMKIIPFNRLTIGEGQQHHLGGAKQAGDV

This experiment covers variants of B1. Kind of experiment: ELISA; 20 µg protein per well; fibrinogen 0.5 µg per well; parent: 3.2; read off a plot.
For the variant chain 1 CFQHGHVPPRRIPPHDTFGALPTAALPSNARDTAAHPSDTADNTSGSSTTTDPRSHGNAPPAPVGGAAQTHTQPPVQTAMRIALWNRATHGEQGALQHLLAGLWIQTEISPNSGDIHPLLFFDREHAEITFSRASVQEIFLVDSAHTHRKTVSFLTRNTAISSIRRRLEVTFESHAVIHVRAVEDVARLKIGSTSMWDGQYTRYHAGPASAPSP [chain 1 E176A], the response was ~3.5 O.D. (492 nm). Under chain 1 CFQHGHVPPRRIPPHDTFGALPTAALPSNARDTAAHPSDTADNTSGSSTTTDPRSHGNAPPAPVGGAAQTHTQPPVQTAMRIALWNRATHGEQGALQHLLAGLWIQTEISPNSGDIHPLLFFDREHAEITFSRASVQEIFLVDSAHTHRKTVSFLTRNTAISSIRRRLEVTFESAEVIHVRAVEDVARLKIGSTSMWDGQYTRYHAGPASAPSP [chain 1 H175A] stands ~3.5 O.D. (492 nm); under chain 1 CFQHGHVPPRRIPPHDTFGALPTAALPSNARDTAAHPSDTADNTSGSSTTTDPRSHGNAPPAPVGGAAQTHTQPPVQTAMRIALWNRATHGEQGALQHLLAGLWIQTEISPNSGDIHPLLFFDREHAEITFSRASVQEIFLVDSAHTHRKTVSFLTRNTAISSIRRRLEVTFESHEVIAVRAVEDVARLKIGSTSMWDGQYTRYHAGPASAPSP [chain 1 H179A], ~3.1 O.D. (492 nm).
